Reference: article PMC3973330, “A highly divergent archaeo-eukaryotic primase from the Thermococcus nautilus plasmid, pTN2”

Target: T1, PolpTN2delta311-923 (Thermococcus nautilus (plasmid pTN2), UniProt D6MY06 1-310)
T1 sequence: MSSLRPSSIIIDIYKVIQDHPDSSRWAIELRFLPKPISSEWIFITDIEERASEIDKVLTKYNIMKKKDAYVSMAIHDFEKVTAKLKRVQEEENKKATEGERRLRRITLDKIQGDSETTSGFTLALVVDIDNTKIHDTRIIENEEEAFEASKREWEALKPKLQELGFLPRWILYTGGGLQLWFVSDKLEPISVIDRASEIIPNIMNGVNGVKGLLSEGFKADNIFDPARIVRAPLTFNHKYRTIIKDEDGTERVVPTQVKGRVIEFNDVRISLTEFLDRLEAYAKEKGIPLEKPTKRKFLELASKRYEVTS
Assay: EMSA; 10 mM Mg2+; EMSA: 50 mM Tris-HCl pH 8, 20 mM KCl, 10 mM MgCl2, 7.5 nM probe, 30 min at 65 C; 10% native PAGE in TBE
Details: protein: recombinant; tags: His-tag (pET30, NdeI/XhoI); label: 32P; single strand

Binder | binding result
AGAGGGTTCAAAAAATGGTTTCACCCCAAA (ssDNA) [30 DNA] | binds
AGAGGGUUCAAAAAAUGGUUUCACCCCAAA (ssRNA) [30 RT] | binds
